From patent publication US20190071513A1 (APTEVO RESEARCH AND DEVELOPMENT, published 2019) come the findings set out here.

Read-outs that look alike come from different tables or passages of the source. Some results are limits rather than exact numbers.

Test [1] addresses human CD123 on the surface of CD123(+) cell lines (human) (UniProt P26951). Nature of the test: flow cytometry competition on Molm-13 cells; competitor PE-conjugated 7G3 at 13 nM.
For test [2] the target is unchanged. Nature of the test: cell-based or functional assay.
Test [3] shares this target. In words: flow cytometry competition on Molm-13 cells: preincubation with unlabeled 7G3, then PE-conjugated 7G3 at 13 nM as the competitor that is read. For orientation: In flow cytometry, cells or beads pass a laser one at a time.
Test [4] concerns the target T1, CD3ε on Jurkat cells and human T-cells (human, UniProt P07766 23-207).
T1 construct: whole, on cells; on cells CD3ε stands in the TCR/CD3 complex; also called CD3 epsilon; CD3ε(+) Jurkat cell line
In words: flow cytometry on CD3ε(+) Jurkat cells, PE anti-human Fc secondary.
Procedure: Flow cytometry was used to quantitate binding of constructed molecules to the CD3ε expressing Jurkat cell line. Binding studies on the CD3ε(+) Jurkat cell line were performed by standard flow cytometry-based staining procedures. […] Signal from bound molecules was detected using a LSR-II™ flow cytometer (BD Biosciences) and analyzed by FlowJo flow cytometry analysis software. Mean fluorescence intensity (MFI) of bound molecules on cells was determined after exclusion of doublets.

Test [5] has as its target T2, human CD123 on the surface of CD123(+) cell lines (human, UniProt P26951 19-378). In words: cell-based or functional assay.
Test [6] concerns the target T2, human CD123 on the surface of CD123(+) …. Nature of the test: flow cytometry on CD123(+) Molm-13 cells, PE anti-human IgG Fc secondary antibody, MFI; table under the graph.
Procedure: (§1) The Molm-13 cell line was obtained from DSMZ (Braunschweig, Germany). The Molm-13 cell line was cultured according to the provided protocols. Chinese hamster ovary (CHO) cells stably expressing the full length cynomolgus CD123 protein were developed in-house. […] Signal from bound molecules was detected using a LSR-II™ flow cytometer (BD Biosciences) and analyzed by FlowJo flow cytometry analysis software. Mean fluorescence intensity (MFI) of bound molecules on cells was determined after exclusion of doublets. Nonlinear regression analysis to determine EC50 values was performed in GraphPad Prism 7® graphing and statistics software.
The target is the same in test [7]. The test is described as above. The source holds these as a separate data set.
Procedure: as §1
Test [8] deals with T3, Full-length cynomolgus CD123, isoform 1 (TRI114), on transfected cells (cynomolgus monkey).
T3 construct: also called cyno CD123; CHO cells stably expressing cynomolgus CD123 protein
T3 chain: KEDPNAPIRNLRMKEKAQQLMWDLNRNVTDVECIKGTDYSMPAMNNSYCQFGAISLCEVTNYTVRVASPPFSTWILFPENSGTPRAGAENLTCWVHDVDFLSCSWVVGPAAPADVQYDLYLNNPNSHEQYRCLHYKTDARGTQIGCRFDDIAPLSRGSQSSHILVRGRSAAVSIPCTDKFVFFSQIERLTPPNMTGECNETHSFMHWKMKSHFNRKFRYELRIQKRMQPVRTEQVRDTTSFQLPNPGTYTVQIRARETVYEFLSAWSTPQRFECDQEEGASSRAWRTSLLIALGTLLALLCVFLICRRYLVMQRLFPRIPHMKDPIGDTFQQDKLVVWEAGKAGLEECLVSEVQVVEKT
Nature of the test: flow cytometry on CHO cells stably expressing cynomolgus CD123, PE anti-human IgG Fc secondary antibody, MFI; table under the graph.
Procedure: as §1

The target of test [9] is T4, human CD123 ectodomain with Avi-3xFLAG-His affinity tag (TRI032) (human).
T4 construct: also called CD123 ECD; recombinant monomeric CD123 ectodomain (ECD)
T4 chain: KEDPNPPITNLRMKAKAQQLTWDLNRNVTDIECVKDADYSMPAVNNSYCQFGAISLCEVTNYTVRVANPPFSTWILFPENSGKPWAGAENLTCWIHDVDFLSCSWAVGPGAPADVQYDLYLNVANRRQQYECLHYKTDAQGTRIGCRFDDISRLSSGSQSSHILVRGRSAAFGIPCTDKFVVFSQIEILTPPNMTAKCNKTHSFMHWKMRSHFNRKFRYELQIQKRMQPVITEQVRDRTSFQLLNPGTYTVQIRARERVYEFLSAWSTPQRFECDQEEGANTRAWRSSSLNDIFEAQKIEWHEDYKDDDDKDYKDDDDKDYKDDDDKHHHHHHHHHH
Nature of the test: SPR (Biacore T200), bispecific captured by anti-Fc, monomeric CD123 ECD as analyte, 25 C, 1:1 model.
Procedure: SPR binding studies of bispecific molecules to recombinant monomeric CD123 ectodomain (ECD) were conducted at 25° C. in HBS-EP+ buffer. […] The bispecific molecules at 200 nM in HBS-EP+ buffer were captured by the immobilized anti-Fc F(ab′)2 fragment at a flow rate of 30 μL/min for 120 sec to reach a stable 2000 RU response. […] Optimal regeneration was achieved by one injection of 10 mM glycine (pH 1.7) at a flow rate of 30 μL/min for 15 sec followed by one injection of 50 mM NaOH at 30 μL/min for 15 sec. A two minute stabilization with HBS-EP+ buffer was completed before the subsequent run.
Sensorgrams obtained from kinetic SPR measurements were analyzed by the double subtraction method. The signal from the reference flow cell was subtracted from the analyte binding response obtained from flow cells with immobilized or captured ligands. Buffer reference responses were then averaged from multiple injections. […] All sensorgrams were fitted using a simple one-to-one binding model.

T2 sequence (P26951 19-378 limits assumed, form in doubt): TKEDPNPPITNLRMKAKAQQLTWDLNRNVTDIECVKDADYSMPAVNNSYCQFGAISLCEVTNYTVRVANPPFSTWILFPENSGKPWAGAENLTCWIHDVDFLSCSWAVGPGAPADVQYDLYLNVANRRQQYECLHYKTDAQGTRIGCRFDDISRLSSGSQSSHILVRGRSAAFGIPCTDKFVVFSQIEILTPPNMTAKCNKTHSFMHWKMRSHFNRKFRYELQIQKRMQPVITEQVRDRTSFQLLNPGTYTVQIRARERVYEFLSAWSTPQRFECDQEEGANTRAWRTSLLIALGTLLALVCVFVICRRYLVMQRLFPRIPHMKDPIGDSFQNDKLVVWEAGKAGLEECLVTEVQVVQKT
Chain of human CD123 on the surface of CD123(+) cell lines (human) (P26951 19-378 limits assumed, form in doubt): as above
T1 sequence (P07766 23-207): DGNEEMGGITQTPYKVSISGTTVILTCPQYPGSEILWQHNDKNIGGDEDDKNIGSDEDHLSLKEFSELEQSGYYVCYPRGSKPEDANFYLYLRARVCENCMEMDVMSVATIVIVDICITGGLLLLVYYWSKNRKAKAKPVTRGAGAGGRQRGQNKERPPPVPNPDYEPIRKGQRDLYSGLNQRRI

B1: anti-human CD123 monoclonal antibody 7G3 (antibody, from another filing, V domains shown)
VH: EVQLQQSGPELVKPGASVKMSCKASGYTFTDYYMKWVKQSHGKSLEWIGDIIPSNGATFYNQKFKGKATLTVDRSSSTAYMHLNSLTSEDSAVYYCTRSHLLRASWFAYWGQGTLVTVSA
VL: DFVMTQSPSSLTVTAGEKVTMSCKSSQSLLNSGNQKNYLTWYLQKPGQPPKLLIYWASTRESGVPDRFTGSGSGTDFTLTISSVQAEDLAVYYCQNDYSYPYTFGGGTKLEIKR
In test [1], B1 came in with a percent inhibition of binding of PE-conjugated 7G3 of 100%. The same molecule registered an IL-3 induced proliferation of TF-1 cells (CyQUANT), 4 days in test [2] of 100%. In test [3], this molecule gave an IC50 (read off the curve) of 2 nM.

B2: TSC266 (bispecific antibody)
chain: DIQMTQSPSAMSASVGDRVTITCRASKSISKYLAWFQQKPGKVPKLRIHSGSTLQSGVPSRFSGSGSGTEFTLTISSLQPEDFATYYCQQHIEYPWTFGQGTKVEIKRGGGGSGGGGSGGGGSQVQLVQSGAEVKKPGASVKVSCKASGYTFTDYYMHWVRQAPGQGLEWMGYFNPYNDYTRYAQKFQGRVTMTRDTSISTAYMELSSLRSDDTAVYYCARSDGYYDAMDYWGQGTTVTVSSSEPKSSDKTHTCPPCPAPEAAGAPSVFLFPPKPKDTLMISRTPEVTCVVVDVSHEDPEVKFNWYVDGVEVHNAKTKPREEQYNSTYRVVSVLTVLHQDWLNGKAYACAVSNKALPAPIEKTISKAKGQPREPQVYTLPPSRDELTKNQVSLTCLVKGFYPSDIAVEWESNGQPENNYKTTPPVLDSDGSFFLYSKLTVDKSRWQQGNVFSCSVMHEALHNHYTQKSLSLSPGQRHNNSSLNTGTQMAGHSPNSQVQLVESGGGVVQPGRSLRLSCKASGYTFTRSTMHWVRQAPGQGLEWIGYINPSSAYTNYNQKFKDRFTISADKSKSTAFLQMDSLRPEDTGVYFCARPQVHYDYNGFPYWGQGTPVTVSSGGGGSGGGGSGGGGSAQDIQMTQSPSSLSASVGDRVTMTCSASSSVSYMNWYQQKPGKAPKRWIYDSSKLASGVPARFSGSGSGTDYTLTISSLQPEDFATYYCQQWSRNPPTFGGGTKLQITSSS
notes: anti-PSMA scFv - Fc - anti-CD3 scFv (CRIS-7 derived) at the C-terminus; also called anti-PSMA×CRIS-7 scFv-Fc-scFv
On to B2, for which, in test [4], a half-maximal response (EC50) required 2 nM and the “fold reduction of binding against DRA240” value is around 10 fold.

B3: TRI168 (bispecific antibody)
chain 1: QAVVTQEPSLTVSPGGTVTLTCRSSTGAVTTSNYANWVQQKPGQAPRGLIGGTNKRAPWTPARFSGSLLGGKAALTITGAQAEDEADYYCALWYSNLWVFGGGTKLTVLGGGGSGGGGEVQLVQSGAELKKPGASVKVSCKASGYTFTDYYMKWVRQAPGQGLEWIGDIIPSNGATFYNQKFKGRVTITVDKSTSTAYMELSSLRSEDTAVYYCARSHLLRASWFAYWGQGTLVTVSSGGCGGGEVAALEKEVAALEKEVAALEKEVAALEK
chain 2: DFVMTQSPDSLAVSLGERVTMSCKSSQSLLNSGNQKNYLTWYQQKPGQPPKLLIYWASTRESGVPDRFSGSGSGTDFTLTISSLQAEDVAVYYCQNDYSYPYTFGQGTKLEIKGGGSGGGGEVQLVESGGGLVQPGGSLRLSCAASGFTFSTYAMNWVRQAPGKGLEWVGRIRSKYNNYATYYADSVKDRFTISRDDSKNSLYLQMNSLKTEDTAVYYCVRHGNFGNSYVSWFAYWGQGTLVTVSSGGCGGGKVAALKEKVAALKEKVAALKEKVAALKESSSLNDIFEAQKIEWHEDYKDDDDKDYKDDDDKDYKDDDDKHHHHHHHHHH
Take B3: in test [5], the “EC50 of T-cell activation (CD4+ and CD8+ CD25+ CD69+) with Molm-13 cells, 24 hours” value was below 0.01 nM; the “EC50 of T-cell proliferation (CFSE) with Molm-13 cells, 4 days” value is 0.002 to 0.005 nM.

B4: TRI129 (bispecific antibody)
chain: EVQLLESGGGLVQPGGSLRLSCAASGFTFSSYGMSWVRQAPGKGLEGVSAISGSGGSTYYADSVKGRFTISRDNSKNTLYLQMNSLRAEDTAVYYCAKEKLRYFDWLSDAFDIWGQGTMVTVSSGGGGSGGGGSGGGGSGGGGSDIVMTQSPDSLAVSLGERATINCKSSHSVLYSSNNKNYLAWYQQKPGQPPKLLIYWASTRESGVPDRFSGSGSGTDFTLTISSLQAEDVAVYYCQQYYSTPPTTFGGGTKVEIKSSSEPKSSDKTHTCPPCPAPEAAGAPSVFLFPPKPKDTLMISRTPEVTCVVVDVSHEDPEVKFNWYVDGVEVHNAKTKPREEQYNSTYRVVSVLTVLHQDWLNGKEYKCAVSNKALPAPIEKTISKAKGQPREPQVYTLPPSRDELTKNQVSLTCLVKGFYPSDIAVEWESNGQPENNYKTTPPVLDSDGSFFLYSKLTVDKSRWQQGNVFSCSVMHEALHNHYTQKSLSLSPGSGGGGSGGGGSGGGGSPSQVQLVQSGPEVKKPGSSVKVSCKASGYTFSRSTMHWVRQAPGQGLEWIGYINPSSAYTNYNQKFKDRVTITADKSTSTAYMELSSLRSEDTAVYYCARPQVHYDYNGFPYWGQGTLVTVSSGGGGSGGGGSGGGGSGGGGSDIQMTQSPSTLSASVGDRVTMTCSASSSVSYMNWYQQKPGKAPKRWIYDSSKLASGVPSRFSGSGSGTDYTLTISSLQPDDFATYYCQQWSRNPPTFGGGTKVEIKRS
notes: scFv-Fc-scFv, anti-CD123 × anti-CD3ε; dimer; also called OMT1 VHVL × TSC456 scFv-Fc-scFv
Turning to B4, the EC50 (as a rule, the concentration at which the effect is half-maximal) in test [6] amounted to 5.33 nM; in test [7], 9.69 nM; in test [8], 8.77 nM. For the same molecule, binding in [9] was put at a Kd of 11.4 nM. In addition, the off-rate (koff) (in general, the first-order rate constant of dissociation) in [9] came to 0.00205 s⁻¹. Further, the kon (as a rule, the second-order rate constant of association) in test [9] amounted to 179000 M⁻¹ s⁻¹.
